Patent publication US10314925B2, “Thymidine kinase” (priority 2004, dated 2019)

Assays:
[1] = system: circulating modified cells; conditions: six patients who developed GvHD and received ganciclovir; cited from earlier work
HSV-tk [2] = assay: RT-PCR of HSV-tk mutants, RNA from Am12 supernatants; design: species or system HSV-1; conditions: for lower band (spliced form): TKA1/TKB1 primers
Excerpt: After sequence confirmation of SFCMM-3 HSV-tk mutants (FIGS. 1A-1C), one plasmid clone of each type was used to transiently transfect E86 cells. SFCMM-3 and TK3 plasmids were used as controls. The supernatant was collected from the E86 cultures and used to stably transduce the amphotropic packaging cell line Am12 as described in Materials and Methods section of Example 2. The resulting cell populations were selected for ΔLNGFR expression.
RNA was extracted from the E86 as well as Am12 culture supernatants containing infectious retroviral particles. RT-PCR reactions were carried out on RNA from E86 and Am12 supernatants using TKA1 and TKB1 primers according to the protocol described in Materials and Methods section of Example 2.

HSV-tk [3] = assay: PCR of genomic DNA from transduced CEM A301 cells; format: cell-based, HSV-1; conditions: CEM A301, TKA1/TKB1 primers, before and after selection
Protocol: CEM A301 cells were cultured in RPMI 1640 (Hyclone) supplemented with 10% FBS (Hyclone) and 2 mM glutamine. CEM A301 cells were infected with Am12 culture supernatant containing SFCMM-3 HSV-tk mutants 2 and 234. The day before transduction 5×10^5 cells/ml were cultured. Transduction was then performed by one centrifugation cycle of retroviral vector particles on cells. After the transduction phase, cells were collected and the percentage of actually transduced cells evaluated by FACS analysis. PBLs from three different donors were transduced (as described in Materials and Methods section of Example 2) with Am12 supernatant containing SFCMM-3 HSV-tk mutant 2 as well as SFCMM-3.
The transduced cells were then sorted for ΔLNGFR expression and expanded a few days in culture.
One pellet for PCR analysis was prepared from the transduced non selected cells as well as from transduced selected cells as described in Materials and Methods section of Example 2. Genomic DNA was extracted from pellet cells and PCR reaction was carried out with TKA1 and TKB1 or TKY1 and TKY2 or TKZ1 and TKZ2 primers (as indicated in the table below) in a 25 μl reaction mixture containing 100-500 ng of genomic DNA, 1×PCR Buffer with 1.5 mM of MgCl2 (Applied Biosystems), […] of each dNTPs, 300 nM of each primer, 1.25 Units of AmpliTaq Gold (Applied Biosystems). The PCR cycling profile consisted of a first denaturation step for 15 min at 94° C. followed by 40 cycles with denaturation for 30 s at 94° C., annealing for 50 s at 60° C. and extension for 1 min at 72° C., and one final extension step of 10 min at 72° C., […] Ten microliters of amplified product were analyzed by agarose gel electrophoresis.

Row | Molecule | average decrease in absolute number of circulating modified cells [1] [%] | spliced product compared to TK3 and SFCMM-3 (ethidium bromide signal) (HSV-tk [2]) | lower band (spliced form) (HSV-tk [2]) | additional bands (HSV-tk [2]) | lower band (spliced form of HSV-tk gene) (HSV-tk [3])
1 | Nc1nc(O)c2ncn(COC(CO)CO)c2n1 [ganciclovir] | 85 |  |  |  | 
2 | TkMut4 (nucleic acid, HSV-1 thymidine kinase mutant sequence.) DNA: ATGGCTTCGTACCCCTGCCATCAACACGCGTCTGCGTTCGACCAGGCTGCGCGTTCTCGCGGCCATAGCAACCGACGTACGGCGTTGCGCCCTCGCCGGCAGCAAGAAGCCACGGAAGTCCGCCTGGAGCAGAAAATGCCCACGCTACTGCGGGTTTATATAGACGGTCCTCACGGGATGGGGAAAACCACCACCACGCAACTGCTGGTGGCCCTGGGTTCGCGCGACGATATCGTCTACGTACCCGAGCCGATGACTTACTGGCAGGTGCTGGGGGCTTCCGAGACAATCGCGAACATCTACACCACACAACACCGCCTCGACCAGGGTGAGATATCGGCCGGGGACGCGGCGGTGGTAATGACAAGCGCCCAGATAACAATGGGCATGCCTTATGCCGTGACCGACGCCGTTCTGGCTCCTCATGTCGGGGGGGAGGCTGGGAGTTCACATGCCCCGCCCCCGGCCCTCACCCTCATCTTCGACCGCCATCCCATCGCCGCCCTCCTGTGCTACCCGGCCGCGCGATACCTTATGGGCAGCATGACCCCCCAAGCCGTGCTGGCGTTCGTGGCCCTCATCCCGCCGACCTTGCCCGGCACAAACATCGTGTTGGGGGCCCTTCCGGAGGACAGACACATCGACCGCCTGGCCAAACGCCAGCGCCCCGGCGAGCGGCTTGACCTGGCTATGCTGGCCGCGATTCGCCGCGTTTACGGGCTGCTTGCCAATACGGTGCGGTATCTGCAGGGCGGCGGGTCGTGGTGGGAGGATTGGGGACAGCTTTCGGGGACGGCCGTGCCGCCCCAGGGTGCCGAGCCCCAGAGCAACGCGGGCCCACGACCCCATATCGGGGACACGTTATTTACCCTGTTTCGGGCCCCCGAGTTGCTGGCCCCCAACGGCGACCTGTATAACGTGTTTGCCTGGGCCTTGGACGTCTTGGCCAAACGCCTCCGTCCCATGCACGTCTTTATCCTGGATTACGACCAATCGCCCGCCGGCTGCCGGGACGCCCTGCTGCAACTTACCTCCGGGATGGTCCAGACCCACGTCACCACCCCAGGCTCCATACCGACGATCTGCGACCTGGCGCGCACGTTTGCCCGGGAGATGGGGGAGGCTAACTGA |  | less represented | lower band is detected |  | 
3 | TkMut34 (nucleic acid, HSV-1 thymidine kinase mutant sequence.) DNA: ATGGCTTCGTACCCCTGCCATCAACACGCGTCTGCGTTCGACCAGGCTGCGCGTTCTCGCGGCCATAGCAACCGACGTACGGCGTTGCGCCCTCGCCGGCAGCAAGAAGCCACGGAAGTCCGCCTGGAGCAGAAAATGCCCACGCTACTGCGGGTTTATATAGACGGTCCTCACGGGATGGGGAAAACCACCACCACGCAACTGCTGGTGGCCCTGGGTTCGCGCGACGATATCGTCTACGTACCCGAGCCGATGACTTACTGGCAGGTGCTGGGGGCTTCCGAGACAATCGCGAACATCTACACCACACAACACCGCCTCGACCAGGGTGAGATATCGGCCGGGGACGCGGCGGTGGTAATGACAAGCGCCCAGATAACAATGGGCATGCCTTATGCCGTGACCGACGCCGTTCTGGCTCCTCATGTCGGGGGGGAGGCTGGGAGTTCACATGCCCCGCCCCCGGCCCTCACCCTCATCTTCGACCGCCATCCCATCGCCGCCCTCCTGTGCTACCCGGCCGCGCGATACCTTATGGGCTCCATGACCCCCCAAGCCGTGCTGGCGTTCGTGGCCCTCATCCCGCCGACCTTGCCCGGCACAAACATCGTGTTGGGGGCCCTTCCGGAGGACAGACACATCGACCGCCTGGCCAAACGCCAGCGCCCCGGCGAGCGGCTTGACCTGGCTATGCTGGCCGCGATTCGCCGCGTTTACGGGCTGCTTGCCAATACGGTGCGGTATCTGCAGGGCGGCGGGTCGTGGTGGGAGGATTGGGGACAGCTTTCGGGGACGGCCGTGCCGCCCCAGGGTGCCGAGCCCCAGAGCAACGCGGGCCCACGACCCCATATCGGGGACACGTTATTTACCCTGTTTCGGGCCCCCGAGTTGCTGGCCCCCAACGGCGACCTGTATAACGTGTTTGCCTGGGCCTTGGACGTCTTGGCCAAACGCCTCCGTCCCATGCACGTCTTTATCCTGGATTACGACCAATCGCCCGCCGGCTGCCGGGACGCCCTGCTGCAACTTACCTCCGGGATGGTCCAGACCCACGTCACCACCCCAGGCTCCATACCGACGATCTGCGACCTGGCGCGCACGTTTGCCCGGGAGATGGGGGAGGCTAACTGA |  | less represented | lower band is detected |  | 
4 | TkMut24 (nucleic acid, HSV-1 thymidine kinase mutant sequence.) DNA: ATGGCTTCGTACCCCTGCCATCAACACGCGTCTGCGTTCGACCAGGCTGCGCGTTCTCGCGGCCATAGCAACCGACGTACGGCGTTGCGCCCTCGCCGGCAGCAAGAAGCCACGGAAGTCCGCCTGGAGCAGAAAATGCCCACGCTACTGCGGGTTTATATAGACGGTCCTCACGGGATGGGGAAAACCACCACCACGCAACTGCTGGTGGCCCTGGGTTCGCGCGACGATATCGTCTACGTACCCGAGCCGATGACTTACTGGCAGGTGCTGGGGGCTTCCGAGACAATCGCGAACATCTACACCACACAACACCGCCTCGACCAGGGCGAGATATCGGCCGGGGACGCGGCGGTGGTAATGACAAGCGCCCAGATAACAATGGGCATGCCTTATGCCGTGACCGACGCCGTTCTGGCTCCTCATGTCGGGGGGGAGGCTGGGAGTTCACATGCCCCGCCCCCGGCCCTCACCCTCATCTTCGACCGCCATCCCATCGCCGCCCTCCTGTGCTACCCGGCCGCGCGATACCTTATGGGCAGCATGACCCCCCAAGCCGTGCTGGCGTTCGTGGCCCTCATCCCGCCGACCTTGCCCGGCACAAACATCGTGTTGGGGGCCCTTCCGGAGGACAGACACATCGACCGCCTGGCCAAACGCCAGCGCCCCGGCGAGCGGCTTGACCTGGCTATGCTGGCCGCGATTCGCCGCGTTTACGGGCTGCTTGCCAATACGGTGCGGTATCTGCAGGGCGGCGGGTCGTGGTGGGAGGATTGGGGACAGCTTTCGGGGACGGCCGTGCCGCCCCAGGGTGCCGAGCCCCAGAGCAACGCGGGCCCACGACCCCATATCGGGGACACGTTATTTACCCTGTTTCGGGCCCCCGAGTTGCTGGCCCCCAACGGCGACCTGTATAACGTGTTTGCCTGGGCCTTGGACGTCTTGGCCAAACGCCTCCGTCCCATGCACGTCTTTATCCTGGATTACGACCAATCGCCCGCCGGCTGCCGGGACGCCCTGCTGCAACTTACCTCCGGGATGGTCCAGACCCACGTCACCACCCCAGGCTCCATACCGACGATCTGCGACCTGGCGCGCACGTTTGCCCGGGAGATGGGGGAGGCTAACTGA |  |  | not detected | two very weak bands of approximately 100 and 200 bp are detected | 
5 | TkMut234 (nucleic acid, HSV-1 thymidine kinase mutant sequence.) DNA: ATGGCTTCGTACCCCTGCCATCAACACGCGTCTGCGTTCGACCAGGCTGCGCGTTCTCGCGGCCATAGCAACCGACGTACGGCGTTGCGCCCTCGCCGGCAGCAAGAAGCCACGGAAGTCCGCCTGGAGCAGAAAATGCCCACGCTACTGCGGGTTTATATAGACGGTCCTCACGGGATGGGGAAAACCACCACCACGCAACTGCTGGTGGCCCTGGGTTCGCGCGACGATATCGTCTACGTACCCGAGCCGATGACTTACTGGCAGGTGCTGGGGGCTTCCGAGACAATCGCGAACATCTACACCACACAACACCGCCTCGACCAGGGCGAGATATCGGCCGGGGACGCGGCGGTGGTAATGACAAGCGCCCAGATAACAATGGGCATGCCTTATGCCGTGACCGACGCCGTTCTGGCTCCTCATGTCGGGGGGGAGGCTGGGAGTTCACATGCCCCGCCCCCGGCCCTCACCCTCATCTTCGACCGCCATCCCATCGCCGCCCTCCTGTGCTACCCGGCCGCGCGATACCTTATGGGCTCCATGACCCCCCAAGCCGTGCTGGCGTTCGTGGCCCTCATCCCGCCGACCTTGCCCGGCACAAACATCGTGTTGGGGGCCCTTCCGGAGGACAGACACATCGACCGCCTGGCCAAACGCCAGCGCCCCGGCGAGCGGCTTGACCTGGCTATGCTGGCCGCGATTCGCCGCGTTTACGGGCTGCTTGCCAATACGGTGCGGTATCTGCAGGGCGGCGGGTCGTGGTGGGAGGATTGGGGACAGCTTTCGGGGACGGCCGTGCCGCCCCAGGGTGCCGAGCCCCAGAGCAACGCGGGCCCACGACCCCATATCGGGGACACGTTATTTACCCTGTTTCGGGCCCCCGAGTTGCTGGCCCCCAACGGCGACCTGTATAACGTGTTTGCCTGGGCCTTGGACGTCTTGGCCAAACGCCTCCGTCCCATGCACGTCTTTATCCTGGATTACGACCAATCGCCCGCCGGCTGCCGGGACGCCCTGCTGCAACTTACCTCCGGGATGGTCCAGACCCACGTCACCACCCCAGGCTCCATACCGACGATCTGCGACCTGGCGCGCACGTTTGCCCGGGAGATGGGGGAGGCTAACTGA |  |  | not detected | two very weak bands of approximately 100 and 200 bp are detected | No lower band is observed
